Where a SMILES comes first, the peptide text is derived from it.
Tests used:
β3 knockout VSMC cells = assay: Internalization in integrin β3 knock-out vascular smooth muscle cells; assay type: cell-based, mice; conditions: 1 μM, 1 hr, 37° C.
Procedure: (§1) Having shown that cypate-GRD preferentially binds to β3 integrin in ABI-positive cells, it was hypothesized that it would not internalize in β3 knockout cells. Vascular smooth muscle cells (VSMCs) from the aortas of β3^−/−apoE^−/− and β3^+/+apoE^−/− mice were provided by Dr. Clay F. Semenkovich (Washington University Medical School in St. Louis, Mo.). VSMCs were maintained at 37° C. in humidified atmosphere containing 5% CO2 in Dulbecco's modified Eagle's medium (DMEM) containing 10% fetal bovine serum, 4 mmol/L L-glutamine, 1 mM sodium pyruvate, 100 U/ml penicillin, 0.25 μg/ml amphotericin, 100 μg/ml streptomycin. The internalization of cypate-GRD and cyclic cypate-RGD were compared in β3 knockout and wild-type VSMC cells, essentially as described above.

A549 cells [1] = assay: CyQuant cytotoxicity and proliferation assay; assay type: cell-based, human; conditions: 48 hours
Procedure: Cells were seeded at 2.5×10^4 cells/well and grown in 96 well plates in the presence of 0−1.5×10^−5 M cypate conjugated peptides for 24 or 48 hours. Cell proliferation was measured using the CyQuant proliferation assay from Molecular Probes (Eugene, Oreg.) per the manufacturer's protocol. Briefly, after incubation the microplate was inverted to remove the media and frozen at −70° C. overnight. The microplate was thawed at room temperature and 200 μL of the CyQuant GR dye/cell-lysis buffer was added to each well. […]
Because the Cyquant assay is based on the adherence of a dye to nucleic acids, the assay is a measure of both proliferative and cytotoxic effects.

A549 tumor = assay: In vivo fluorescence optical imaging and ex vivo organ distribution in A549 tumor-bearing nude mice; conditions: for uptake / retention in A549 tumor: 0.3 μmol per kg via lateral tail vein, fluorescence imaging
Procedure: All in vivo studies were performed in compliance with the Washington University in St Louis Animal Study Committee's requirements for the care and use of laboratory animals in research. Nude mice (18-22 g) were anesthetized with xylazine/ketamine cocktail via intraperitoneal injection and placed in a supine position. The mice were injected subcutaneously with A549 cells (1×10^6) in the lower back of the mice. Tumor masses were palpable at 5-7 days post implant, which reached 5 mm in 10-15 days. Prior to injection of the probe, the mice were anesthetized as described above. A 29-gauge needle was used to inject the probes into the mouse via the lateral tail vein. The molecular probe (100 μL) was injected via the lateral tail vein at 0.3 μmol per kg of body weight. […] [SEQ ID NO:1] were constituted in a vial, and doses of 0.3 μmol per kg of body weight were injected into the A549 tumor-bearing mice.
A non-invasive in vivo continuous wave fluorescence imaging apparatus was used to visualize the distribution and preferential tissue uptake of the cypate-peptide molecular beacons in the nude mice (Achilefu (2004) Technol. Cancer Res. Treat. 3:393-409, incorporated herein by reference). Light from two laser diodes of nominal wavelength 780 nm and nominal power of 50 mW was launched into a fiber optic bundle. Two laser diodes were used to produce as much uniform illumination of the whole animal or organ parts as possible. The nominal 50 mW of incident power was reduced to about 44 mW at the output of the fiber optic bundle. A de-focusing lens in position after the bundle expanded the beam such that nearly the whole animal was illuminated. A Photometrics CCD camera (16 bit, 1024×1024 pixel, back illuminated, thermoelectric Peltier cooled with forced air) was used to capture the emitted photons. An interference filter (830 nm) was mounted in front of the CCD camera input lens such that only emitted fluorescent light from the contrast agent was imaged. Real-time acquisition, display and data processing software (WinView/32) was used to obtain the optical image. The samples were dissolved in 20% aqueous DMSO and animals were injected with doses of 0.3 μmol/kg body weight via the lateral tail vein. Injected volumes were 100 μL for each mouse. Data analysis consisted of subtracting (pixel by pixel) the pre-injection image from the post injection images, and displaying the false color results. Integration of the relative fluorescence intensities of tumor vs. surrounding tissues indicated the extent of selective uptake of the contrast agent. At the completion of the study, the mice were euthanized and some organ parts were excised and rinsed with water. The tissues were placed under the CCD camera and the fluorescence emission from each organ was measured after excitation with the 780 nm laser sources. Tissue parts, instead of whole organs, were used to minimize problems associated with depth-dependent non-linear fluorescence emission. A statistical program in the WinView package was used to estimate the mean fluorescence intensity per organ part.
In vivo optical imaging studies using the cypate-peptide optical probes were performed and analyzed as described above in Example 1. […]

VSMC wild-type cells = assay: Internalization in wild-type vascular smooth muscle cells; assay type: cell-based, mice; conditions: 1 μM, 1 hr, 37° C.
Procedure: as §1

[2] = system: αv, β3, αvβ3 and αIIBβ3 integrins in A549 cells; assay: Immunostaining of integrins in treated and untreated cells; assay type: cell-based, human; conditions: relative to PBS-treated cells
Procedure: To confirm the receptors that mediate internalization of cypate-GRD in A549 cells, the levels of αv, αIIb, β3, αvβ3, and αIIBβ3 in treated and untreated cells were assessed by immunostaining. Cells were grown on Lab-Tek slides and fixed in 3% paraformaldehyde in PBS for 30 min. After washing three times for 5 min each in PBS, the cells were blocked to mask nonspecific binding sites with PBS containing 1% normal goat serum (blocking solution) for 1 h. Primary antibodies of mouse anti-human αv or β3 integrin antibodies (Chemicon International, Temecula, Calif.) or antihuman αIIBβ3 (GeneTex, Inc., South Bend, Ind.) diluted 1:500 (v/v) in blocking solution were added to each well and incubated overnight at 4° C. After washing three times for 10 min each in PBS, cells were incubated for 1 h with diluted biotinylated-anti-mouse IgG antibody in blocking solution. After washing, antigens were detected with avidin-horseradish peroxidase conjugate and diamino benzidine (Vector Laboratories, Burlingame, Calif.). Slides were counterstained with Mayers Hematoxylin, and the cover slips were mounted for microscopic examination.

[3] = target: integrin αvβ3 protein (purified ABI) (Homo sapiens, UniProt P05106+P06756); assay: Receptor binding assay with 125I-echistatin (Example 3); conditions: Table 4, 125I-echistatin tracer
Procedure: A 96-well filtration plate was blocked with 0.1% polyethylenimine blocking solution by incubation overnight at 4° C. ^125I-Echistatin (50 nmol/L) was added to the binding buffer (50 mM Tris-HCl, pH 7.4, 100 mM NaCl, 2 mM CaCl2, 1 mM MgCl2, 1 mM MnCl2, 0.1% BSA) with integrin αvβ3 protein (50 ng/well in 96-well filtration plate) and ligands. The concentration range of ligand was between 0.01 and 100 μM. The mixture was incubated for 2 h by shaking at room temperature. Each well was washed three times with 0.25 mL of ice-cold binding buffer and dried. The filters were removed using a punch apparatus and counted in a gamma counter.

A549 cells [4] = assay: Cellular internalization and blocking studies by fluorescence microscopy (Example 1); conditions: 37° C.; for translocation into the nucleus: A549 cells
Procedure: Cells were grown on LabTek microscope slides, as described above. The medium was removed and cells were incubated at 4° C. or 37° C. in PBS containing 1 μM of one of the peptide conjugates for 30 min. […] The cells were further incubated at 37° C. for 4 h and visualized with a Zeiss LSM510 system using a 633 laser and an LP650 filter.
For antibody blocking studies, cells were preincubated for 30 min at room temperature with 10 μg/ml function-specific monoclonal antibodies anti-αv or anti-β3 integrin subunits (Molecular Probes; Eugene Oreg.) before addition of 1 μM of a cypate-peptide conjugate. For nuclear staining, 0.1 μM TOPO-1 (Molecular Probes) was mixed with mounting medium and applied to the cells. All cells were visualized on an Olympus FV1000 microscope equipped with the appropriate bandwidth filters for cypate conjugates (or cypate-3 conjugates) and TROPO-1.

Sequence of integrin αvβ3 protein (purified ABI) (P06756 31-889 limits assumed): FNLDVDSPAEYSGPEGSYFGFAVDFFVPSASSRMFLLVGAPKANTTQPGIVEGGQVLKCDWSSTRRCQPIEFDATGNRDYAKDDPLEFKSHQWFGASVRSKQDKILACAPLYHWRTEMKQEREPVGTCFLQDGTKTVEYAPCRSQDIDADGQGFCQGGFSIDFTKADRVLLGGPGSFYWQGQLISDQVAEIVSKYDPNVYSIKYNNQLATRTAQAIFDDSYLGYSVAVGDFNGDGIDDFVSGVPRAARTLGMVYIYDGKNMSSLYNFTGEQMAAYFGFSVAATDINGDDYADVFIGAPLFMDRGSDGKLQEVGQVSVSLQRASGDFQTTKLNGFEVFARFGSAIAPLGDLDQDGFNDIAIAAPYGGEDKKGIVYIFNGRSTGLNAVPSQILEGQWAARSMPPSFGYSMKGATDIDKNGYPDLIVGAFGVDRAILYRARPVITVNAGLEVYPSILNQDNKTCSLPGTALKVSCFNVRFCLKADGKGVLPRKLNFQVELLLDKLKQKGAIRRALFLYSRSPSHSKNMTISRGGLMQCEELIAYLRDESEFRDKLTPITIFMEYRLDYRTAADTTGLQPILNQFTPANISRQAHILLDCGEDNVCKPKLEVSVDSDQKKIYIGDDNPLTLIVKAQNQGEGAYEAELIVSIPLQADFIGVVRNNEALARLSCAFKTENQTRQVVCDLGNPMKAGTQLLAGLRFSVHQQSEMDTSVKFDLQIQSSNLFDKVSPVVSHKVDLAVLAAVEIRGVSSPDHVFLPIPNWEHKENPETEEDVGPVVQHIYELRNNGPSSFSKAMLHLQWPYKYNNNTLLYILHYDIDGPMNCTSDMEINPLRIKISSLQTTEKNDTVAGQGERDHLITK
Sequence of integrin αvβ3 protein (purified ABI) (P06756 891-1048 partner limits assumed): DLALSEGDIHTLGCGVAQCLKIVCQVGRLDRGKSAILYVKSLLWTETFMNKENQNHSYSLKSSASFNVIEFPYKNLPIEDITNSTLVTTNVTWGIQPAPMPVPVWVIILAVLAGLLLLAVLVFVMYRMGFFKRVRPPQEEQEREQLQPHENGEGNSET
Sequence of integrin αvβ3 protein (purified ABI) (P05106 27-788): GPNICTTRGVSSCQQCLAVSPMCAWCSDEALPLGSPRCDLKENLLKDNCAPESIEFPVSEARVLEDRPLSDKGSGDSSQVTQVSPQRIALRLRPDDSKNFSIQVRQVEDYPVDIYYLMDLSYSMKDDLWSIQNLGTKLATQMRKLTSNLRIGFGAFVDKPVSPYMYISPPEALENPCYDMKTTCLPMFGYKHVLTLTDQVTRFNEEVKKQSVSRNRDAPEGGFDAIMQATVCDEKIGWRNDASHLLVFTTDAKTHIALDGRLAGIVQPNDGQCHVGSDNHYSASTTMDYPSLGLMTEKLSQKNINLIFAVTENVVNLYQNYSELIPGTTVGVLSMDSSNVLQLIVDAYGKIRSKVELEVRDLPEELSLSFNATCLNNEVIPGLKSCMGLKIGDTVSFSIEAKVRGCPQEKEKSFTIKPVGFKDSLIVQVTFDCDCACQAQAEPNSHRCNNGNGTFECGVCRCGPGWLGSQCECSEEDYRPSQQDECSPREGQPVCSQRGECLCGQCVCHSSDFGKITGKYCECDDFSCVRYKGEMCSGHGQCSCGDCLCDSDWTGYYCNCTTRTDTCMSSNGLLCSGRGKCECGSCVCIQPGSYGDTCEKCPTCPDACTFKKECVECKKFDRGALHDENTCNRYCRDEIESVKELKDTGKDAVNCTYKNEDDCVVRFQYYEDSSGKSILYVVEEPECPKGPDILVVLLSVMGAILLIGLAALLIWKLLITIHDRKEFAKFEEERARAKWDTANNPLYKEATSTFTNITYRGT

CC1(C)C(/C=C/C=C/C=C/C=C2/N(CCC(=O)NCC(=O)N[C@@H](CCCNC(=N)N)C(=O)N[C@@H](CC(=O)O)C(=O)N[C@@H](CO)C(=O)N3CCC[C@H]3C(=O)N[C@@H](CCCCN)C(=O)O)c3ccc4ccccc4c3C2(C)C)=[N+](CCC(=O)O)c2ccc3ccccc3c21 [Cyp-GRD, Cypate-GRDSPK] (HELM PEPTIDE1{[CC1(C)C(/C=C/C=C/C=C/C=C2/N(CCC(=O)[*:2])c3ccc4ccccc4c3C2(C)C)=[N+](CCC(=O)O)c2ccc3ccccc3c21].G.R.D.S.P.K}$$$$V2.0)
internalization in β3 knockout cells (β3 knockout VSMC cells): not observed | cytotoxicity (CyQuant), longer treatment (A549 cells [1]): not | clearance from blood (A549 tumor; 0.3 μmol per kg i.v.): slow clearance | time post injection after which selective tumor uptake became obvious (A549 tumor; 0.3 μmol per kg i.v.): > 8 h | time the whole animal fluoresced after injection before clearance began (A549 tumor; 0.3 μmol per kg i.v.): up to 2 h | uptake / retention in A549 tumor (A549 tumor): preferential uptake of the probes in the tumor | uptake / retention in A549 tumor (A549 tumor; listed as cypate-GRD): preferentially localized | accumulation / retention in nontarget tissues (A549 tumor; 24 h post injection): much lower | tumor uptake compared among the cypate-peptide conjugates (A549 tumor; 24 h post injection): higher uptake in the tumor tissue | internalization in VSMC wild-type cells (VSMC wild-type cells): internalized | staining of A549 cells with anti-αv, anti-β3, anti-αvβ3 and anti-αIIBβ3 antibodies after preincubation [2]: reduced staining | IC50 [3]: > 100 µM | internalization in A549 cells (A549 cells [4]; 1 μM): internalized | translocation into the nucleus (A549 cells [4]): did not translocate to the nucleus | translocation into the nucleus (A549 cells [4]; listed as cypate-GRD): not localized in the nucleus
